Test results as given in the supplement of paper PMC7125110.
± gives the standard error. For some assays here: Fewer inactive variants are shown than the library holds.

B1: glmS ribozyme (parent)
chain: AUAAAAGCGCCAGAACUACAGAAAUGUAGUUGACGAGGAGGAGGUUUAUCGAAUUUUCGGCGGAUGCCUCCAAA

Experiments:
Settings in all cases: with glucosamine-6-phosphate
[1] = variants of: B1; experiment: kcat; higher = faster cleavage; RNA array
Summary of the method: (§1)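 E. coli RNA polymerase transcribed barcoded ribozyme variants in situ on sequenced MiSeq chips, which were tracked via a hybridised Cy3 probe at 37 °C. Tiles were imaged over ~14 h after glucosamine-6-phosphate (40 μM to 10 mM) in HEPES/KCl/Mg(OAc)2 buffer was flowed in. Normalised per-tile medians were fit to one- or two-exponential decays for kobs, and kcat and KM came from weighted Michaelis–Menten fits.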

[2] = variants of: B1; experiment: KM; higher = weaker cofactor use; RNA array
Summary of the method: as §1

[3] = variants of: B1; experiment: self-cleavage kobs at 40 uM GlcN6P; higher = faster cleavage; RNA array
Summary of the method: as §1

[4] = variants of: B1; experiment: self-cleavage kobs at 160 uM GlcN6P; higher = faster cleavage; RNA array
Summary of the method: as §1

[5] = variants of: B1; experiment: self-cleavage kobs at 640 uM GlcN6P; higher = faster cleavage; RNA array
Summary of the method: as §1

[6] = variants of: B1; experiment: self-cleavage kobs at 2500 uM GlcN6P; higher = faster cleavage; RNA array
Summary of the method: as §1

[7] = variants of: B1; experiment: self-cleavage kobs at 10000 uM GlcN6P; higher = faster cleavage; RNA array
Summary of the method: as §1

## A15G U56A
[1]
  kcat: 0.00941 ± 0.0033 s⁻¹
[2]
  KM: 1700 ± 790 µM
[3]
  self-cleavage kobs at 40 uM GlcN6P: 0.000313 ± 3.4e-05 s⁻¹
[4]
  self-cleavage kobs at 160 uM GlcN6P: 0.000554 ± 9.9e-05 s⁻¹
[5]
  self-cleavage kobs at 640 uM GlcN6P: 0.00267 ± 0.00031 s⁻¹
[6]
  self-cleavage kobs at 2500 uM GlcN6P: 0.00536 ± 0.0015 s⁻¹
[7]
  self-cleavage kobs at 10000 uM GlcN6P: 0.00825 ± 0.0011 s⁻¹

## A12G A14G
[1]
  kcat: 0.00308 ± 0.00041 s⁻¹
[2]
  KM: 4770 ± 950 µM
[3]
  self-cleavage kobs at 40 uM GlcN6P: 2.51e-05 ± 6.2e-06 s⁻¹
[4]
  self-cleavage kobs at 160 uM GlcN6P: 8.41e-05 ± 1.3e-05 s⁻¹
[5]
  self-cleavage kobs at 640 uM GlcN6P: 0.000405 ± 4.5e-05 s⁻¹
[6]
  self-cleavage kobs at 2500 uM GlcN6P: 0.00121 ± 0.00015 s⁻¹
[7]
  self-cleavage kobs at 10000 uM GlcN6P: 0.00203 ± 0.00016 s⁻¹

## A15G U65A C71A
[1]
  kcat: 0.000944 ± 0.0002 s⁻¹
[2]
  KM: 755 ± 320 µM
[3]
  self-cleavage kobs at 40 uM GlcN6P: 3.84e-05 ± 1.7e-05 s⁻¹
[5]
  self-cleavage kobs at 640 uM GlcN6P: 0.000466 ± 5.6e-05 s⁻¹
[6]
  self-cleavage kobs at 2500 uM GlcN6P: 0.000535 ± 0.00018 s⁻¹
[7]
  self-cleavage kobs at 10000 uM GlcN6P: 0.000965 ± 0.00023 s⁻¹

## C11U U31A
[1]
  kcat: 0.00134 ± 0.00062 s⁻¹
[4]
  self-cleavage kobs at 160 uM GlcN6P: 9.69e-05 ± 2.6e-05 s⁻¹
[5]
  self-cleavage kobs at 640 uM GlcN6P: 0.000376 ± 6.7e-05 s⁻¹
[6]
  self-cleavage kobs at 2500 uM GlcN6P: 0.000431 ± 0.00012 s⁻¹
[7]
  self-cleavage kobs at 10000 uM GlcN6P: 0.00146 ± 0.00025 s⁻¹

## A15G C16A C70U
[1]
  kcat: 0.000398 ± 6.7e-05 s⁻¹
[2]
  KM: 804 ± 260 µM
[4]
  self-cleavage kobs at 160 uM GlcN6P: 6.78e-05 ± 2.4e-05 s⁻¹
[5]
  self-cleavage kobs at 640 uM GlcN6P: 0.000168 ± 2.9e-05 s⁻¹
[6]
  self-cleavage kobs at 2500 uM GlcN6P: 0.000315 ± 6.5e-05 s⁻¹

## U55A G59A
[1]
  kcat: 6.57e-05 ± 1.4e-05 s⁻¹
[6]
  self-cleavage kobs at 2500 uM GlcN6P: 5.76e-05 ± 1.7e-05 s⁻¹
[7]
  self-cleavage kobs at 10000 uM GlcN6P: 5.69e-05 ± 1.3e-05 s⁻¹

## G32A U55A
[1]
  kcat: 0.00351 ± 0.00053 s⁻¹
[2]
  KM: 3540 ± 690 µM
[3]
  self-cleavage kobs at 40 uM GlcN6P: 5.08e-05 ± 9.5e-06 s⁻¹
[4]
  self-cleavage kobs at 160 uM GlcN6P: 0.00014 ± 1.7e-05 s⁻¹
[5]
  self-cleavage kobs at 640 uM GlcN6P: 0.000541 ± 5.3e-05 s⁻¹
[6]
  self-cleavage kobs at 2500 uM GlcN6P: 0.00144 ± 0.00022 s⁻¹
[7]
  self-cleavage kobs at 10000 uM GlcN6P: 0.00261 ± 0.00038 s⁻¹

## U30G G60A
[1]
  kcat: 1.25e-05 ± 1.8e-06 s⁻¹
[3]
  self-cleavage kobs at 40 uM GlcN6P: < 1e-05 s⁻¹
[4]
  self-cleavage kobs at 160 uM GlcN6P: < 1e-05 s⁻¹

## U46G G66U
[1]
  kcat: 0.000756 ± 0.00014 s⁻¹
[2]
  KM: 2360 ± 740 µM
[4]
  self-cleavage kobs at 160 uM GlcN6P: 3.38e-05 ± 1.2e-05 s⁻¹
[5]
  self-cleavage kobs at 640 uM GlcN6P: 0.000177 ± 2.9e-05 s⁻¹
[6]
  self-cleavage kobs at 2500 uM GlcN6P: 0.000448 ± 8e-05 s⁻¹
[7]
  self-cleavage kobs at 10000 uM GlcN6P: 0.000578 ± 8.8e-05 s⁻¹

## G32C A52G
[1]
  kcat: 1.94e-05 ± 5.2e-06 s⁻¹

## A14U G37U G63U
[1]
  kcat: < 1e-05 s⁻¹
[3]
  self-cleavage kobs at 40 uM GlcN6P: < 1e-05 s⁻¹

## G37A A53U C71U
[1]
  kcat: 0.00135 ± 0.00053 s⁻¹
[3]
  self-cleavage kobs at 40 uM GlcN6P: 7.9e-05 ± 3.8e-05 s⁻¹
[5]
  self-cleavage kobs at 640 uM GlcN6P: 0.000464 ± 8.3e-05 s⁻¹
[6]
  self-cleavage kobs at 2500 uM GlcN6P: 0.000695 ± 0.00015 s⁻¹
[7]
  self-cleavage kobs at 10000 uM GlcN6P: 0.00165 ± 0.00033 s⁻¹

## G32U U55G U56A
[1]
  kcat: 0.000802 ± 4.9e-05 s⁻¹
[2]
  KM: 5530 ± 450 µM
[5]
  self-cleavage kobs at 640 uM GlcN6P: 8.29e-05 ± 1.1e-05 s⁻¹
[6]
  self-cleavage kobs at 2500 uM GlcN6P: 0.000255 ± 4.3e-05 s⁻¹
[7]
  self-cleavage kobs at 10000 uM GlcN6P: 0.000509 ± 0.00011 s⁻¹

## U57C C68A
[1]
  kcat: 1.48e-05 ± 1.3e-06 s⁻¹
[2]
  KM: 184 ± 90 µM
[7]
  self-cleavage kobs at 10000 uM GlcN6P: < 1e-05 s⁻¹

## G37A G40A
[1]
  kcat: 0.000755 ± 0.00012 s⁻¹
[2]
  KM: 2830 ± 820 µM
[4]
  self-cleavage kobs at 160 uM GlcN6P: 3.73e-05 ± 1.3e-05 s⁻¹
[5]
  self-cleavage kobs at 640 uM GlcN6P: 0.000135 ± 3.7e-05 s⁻¹
[6]
  self-cleavage kobs at 2500 uM GlcN6P: 0.000366 ± 7.6e-05 s⁻¹
[7]
  self-cleavage kobs at 10000 uM GlcN6P: 0.000583 ± 9.3e-05 s⁻¹

## C10A C67U C71G
[1]
  kcat: 2.93e-05 ± 1.4e-05 s⁻¹

## A14C C68A
[1]
  kcat: 2.76e-05 ± 9.8e-06 s⁻¹
[6]
  self-cleavage kobs at 2500 uM GlcN6P: 3.95e-05 ± 1.8e-05 s⁻¹
